PMC5173487 (Nature immunology, 2016)

T1: His-tagged EPRS (amino acids 1–196) (human (by GenBank NM_004446.2), UniProt P07814 1-196)
T1 sequence (looked up): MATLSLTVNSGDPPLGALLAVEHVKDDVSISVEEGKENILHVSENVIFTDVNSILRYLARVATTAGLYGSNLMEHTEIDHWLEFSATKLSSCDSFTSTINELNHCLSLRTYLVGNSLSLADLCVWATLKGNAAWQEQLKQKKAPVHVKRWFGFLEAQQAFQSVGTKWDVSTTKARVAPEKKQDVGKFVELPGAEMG

B1: GST-fused PCBP2 (amino acids 11–82) (domain or fragment, UniProt Q15366 11-82, looked up)
chain: NVTLTIRLLMHGKEVGSIIGKKGESVKKMREESGARINISEGNCPERIITLAGPTNAIFKAFAMIIDKLEED
B2: His-tagged PCBP2 (amino acids 11–82) (domain or fragment, UniProt Q15366 11-82, looked up)
chain: NVTLTIRLLMHGKEVGSIIGKKGESVKKMREESGARINISEGNCPERIITLAGPTNAIFKAFAMIIDKLEED

Experiments:
[1] = target: T1, His-tagged EPRS (amino acids 1–196); experiment: pull-down
[2] = target: GST-fused MAVS (amino acids 460–540) (UniProt Q7Z434 460-540); experiment: pull-down
GST-fused MAVS (amino acids 460–540), sequence (Q7Z434 460-540): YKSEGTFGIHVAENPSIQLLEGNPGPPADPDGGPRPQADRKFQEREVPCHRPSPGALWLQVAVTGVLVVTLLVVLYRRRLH

Binder	binding result [1]	binding result [2]
B1	binds	
B2		binds
